{
  "source": "paper PMC4655364",
  "about": "“HdeB chaperone activity is coupled to its intrinsic dynamic properties” (Scientific Reports, 2015)",
  "proteins": {"B1": {"name": "E. coli HdeB (natural protein, UniProt P0AET2 30-108, looked up)", "chain": "ANESAKDMTCQEFIDLNPKAMTPVAWWMLHEETVYKGGDTVTLNETDLTQIPKVIEYCKKNPQKNLYTFKNQASNDLPN", "notes": "HdeB, periplasmic acid-resistant chaperone of E. coli; 79 residues; numbers count on: the mature protein, with the signal peptide excluded; Expressed from pET-28a(+); It speaks of 79 residues and numbers them on the mature protein; Samples were 15N- or 13C/15N-labelled; Each monomer has a Cys10-Cys58 disulfide bridge; also called HdeB dimer; HdeB homo-dimer; source: E. coli BL21(DE3)-T1R, …"}},
  "target": "the molecule itself",
  "assay": "NMR backbone 15N relaxation (R2/R1, model-free analysis); pH 7.0, 5.0, 4.5 and 4.0; 25 °C, 800 MHz; 50 mM sodium phosphate, 45 mM citric acid",
  "data": [
    {"protein": "B1", "values": [
      {"measurement": "stoichiometry N", "value": 2}
    ]}
  ]
}
